Test results taken from doi:10.1101/2021.02.09.430442 (bioRxiv, 2021).

What was measured:
[1] = target: T1, Recombinant human Syntaxin6 (human, UniProt O43752 1-255); test: pull-down
T1 sequence: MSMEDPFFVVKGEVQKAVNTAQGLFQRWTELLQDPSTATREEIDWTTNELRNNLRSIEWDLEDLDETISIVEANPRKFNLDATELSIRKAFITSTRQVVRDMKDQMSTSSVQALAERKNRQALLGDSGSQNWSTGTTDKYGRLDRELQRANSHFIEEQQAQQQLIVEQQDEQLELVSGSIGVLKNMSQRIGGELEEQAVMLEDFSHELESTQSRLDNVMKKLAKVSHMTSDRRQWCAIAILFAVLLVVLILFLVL

Recombinant human Vti1a = target: T2, Recombinant human Vti1a (human, UniProt Q96AJ9 1-217); test: pull-down
T2 sequence (looked up): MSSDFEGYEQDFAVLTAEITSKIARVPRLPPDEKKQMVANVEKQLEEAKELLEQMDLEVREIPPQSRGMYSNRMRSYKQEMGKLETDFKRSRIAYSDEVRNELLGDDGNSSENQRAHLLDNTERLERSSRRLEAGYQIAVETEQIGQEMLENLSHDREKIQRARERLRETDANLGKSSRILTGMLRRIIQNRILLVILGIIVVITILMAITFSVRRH

B1: GST-VAMP4 (natural protein, human, UniProt O75379 1-141, looked up)
chain: MPPKFKRHLNDDDVTGSVKSERRNLLEDDSDEEEDFFLRGPSGPRFGPRNDKIKHVQNQVDEVIDVMQENITKVIERGERLDELQDKSESLSDNATAFSNRSKQLRRQMWWRGCKIKAIMALVAAILLLVIIILIVMKYRT
binding result [1]: binds | binding result (Recombinant human Vti1a): binds
